In patent US20070202501A1:

How the values were obtained:
Assay in all cases: cell-based or functional assay
[1] = molecular target: CD8-KIR fusion protein (extracellular domain of CD8 alpha chain fused to the cytoplasmic ITIM motif of KIR; pCXND3CD8KIRfull), expressed in F11 Jurkat reporter cells (human) (UniProt P01732)
[2] = molecular target: CD8-NKIR fusion protein (extracellular domain of CD8 alpha chain fused to the cytoplasmic ITIM motif of NKIR; pCXND3CD8NKIRfull), expressed in F11 Jurkat reporter cells (human) (UniProt P01732)
[3] = molecular target: in-frame fusion between the extracellular domain of 2KIRDL3 (KIR2DL3) and the cytoplasmic ITIM motif of NKIR (pCXND3KIR58NKIR313), expressed in Jurkat cells (human) (UniProt P43628)
Sequence of UniProt P43628 (P43628 other isoform, or with tags, fused parts or gaps limits assumed): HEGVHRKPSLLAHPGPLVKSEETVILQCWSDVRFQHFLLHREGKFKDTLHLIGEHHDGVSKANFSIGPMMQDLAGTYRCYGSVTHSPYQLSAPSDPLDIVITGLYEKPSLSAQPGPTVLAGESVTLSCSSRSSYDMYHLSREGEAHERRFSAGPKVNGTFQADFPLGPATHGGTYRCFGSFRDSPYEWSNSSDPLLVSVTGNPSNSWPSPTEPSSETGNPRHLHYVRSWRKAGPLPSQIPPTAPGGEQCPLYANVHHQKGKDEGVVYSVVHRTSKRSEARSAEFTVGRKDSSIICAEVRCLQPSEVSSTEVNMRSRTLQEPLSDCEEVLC

Row | degree of reduction of luciferase reporter activity (NFAT-luciferase, 10-hour ConA stimulation, LT8 1.5 µg/ml) [1] [%] | degree of reduction of luciferase reporter activity (NFAT-luciferase, 10-hour ConA stimulation, LT8 1.5 µg/ml; clone NKIR#16) [2] [%] | degree of reduction of luciferase reporter activity (NFAT-luciferase, 10-hour ConA stimulation, LT8 1.5 µg/ml; clone NKIR#19) [2] [%] | inhibition of luciferase activity (NFAT-luciferase reporter, anti-CD3 stimulated chimeraA10ZEOR12 cells, GL183 1 µg/ml then rat anti-mouse IgG cross-linking) [3] [%] | Substance
1 | 16.6 | 21.2 | 30.2 | – | anti-CD8 antibody LT8 (Serotec, MCA1226XZ)
2 | – | – | – | 33.3 | GL183 monoclonal antibody (Beckman Coulter)
